Laboratory results: patent US20240116985A1 (published 2024)
Starred links: 1 amine or outer side, 2 acyl side, 3 side chain; linkers in the order of their positions; H or OH if unused. Positions of bridges follow the written chain, without caps; N, C: chain ends. Non-standard residues stand in square brackets, D forms with d. Primed or numbered codes have the meaning given here. B5(15) = 2-amino-2-(pent-4-en-1-yl)hept-6-enoic acid (2,2-bis(4-pentenyl)glycine), stitching residue bearing two staples, C=CCCCC(CCCC=C)(N[*:1])C(=O)[*:2]; PyrS2″ = (S)-3-amino-1-((pent-4-en-1-yloxy)carbonyl)pyrrolidine-3-carboxylic acid (stapling residue), C=CCCCOC(=O)N1CC[C@@](N[*:1])(C(=O)[*:2])C1; B5(4) = 2,2-bis(4-pentenyl)glycine = 2-amino-2-(pent-4-en-1-yl)hept-6-enoic acid (stitching residue), C=CCCCC(CCCC=C)(N[*:1])C(=O)[*:2]; B5(5) = 2,2-bis(4-pentenyl)glycine, 2-amino-2-(pent-4-en-1-yl)hept-6-enoic acid (stitching residue), C=CCCCC(CCCC=C)(N[*:1])C(=O)[*:2]; Phe(3-COOH) = N[C@@H](Cc1cccc(C(=O)O)c1)C(=O)O; Bta = N[C@@H](Cc1csc2ccccc12)C(=O)O; αAllylPro = C=CC[C@@]1(C(=O)O)CCCN1; tBuAla = CC(C)(C)C[C@H](N)C(=O)O; 3Thi = N[C@@H](Cc1ccsc1)C(=O)O; Cha = N[C@@H](CC1CCCCC1)C(=O)O; S8 = C=CCCCCCC[C@](C)(N)C(=O)O; hLeu = CC(C)CC[C@H](N)C(=O)O; PyrS2(4) = not defined here; hSer = N[C@@H](CCO)C(=O)O

T1: Bcat-Halo (UniProt P35222 1-781)
T1 sequence (looked up): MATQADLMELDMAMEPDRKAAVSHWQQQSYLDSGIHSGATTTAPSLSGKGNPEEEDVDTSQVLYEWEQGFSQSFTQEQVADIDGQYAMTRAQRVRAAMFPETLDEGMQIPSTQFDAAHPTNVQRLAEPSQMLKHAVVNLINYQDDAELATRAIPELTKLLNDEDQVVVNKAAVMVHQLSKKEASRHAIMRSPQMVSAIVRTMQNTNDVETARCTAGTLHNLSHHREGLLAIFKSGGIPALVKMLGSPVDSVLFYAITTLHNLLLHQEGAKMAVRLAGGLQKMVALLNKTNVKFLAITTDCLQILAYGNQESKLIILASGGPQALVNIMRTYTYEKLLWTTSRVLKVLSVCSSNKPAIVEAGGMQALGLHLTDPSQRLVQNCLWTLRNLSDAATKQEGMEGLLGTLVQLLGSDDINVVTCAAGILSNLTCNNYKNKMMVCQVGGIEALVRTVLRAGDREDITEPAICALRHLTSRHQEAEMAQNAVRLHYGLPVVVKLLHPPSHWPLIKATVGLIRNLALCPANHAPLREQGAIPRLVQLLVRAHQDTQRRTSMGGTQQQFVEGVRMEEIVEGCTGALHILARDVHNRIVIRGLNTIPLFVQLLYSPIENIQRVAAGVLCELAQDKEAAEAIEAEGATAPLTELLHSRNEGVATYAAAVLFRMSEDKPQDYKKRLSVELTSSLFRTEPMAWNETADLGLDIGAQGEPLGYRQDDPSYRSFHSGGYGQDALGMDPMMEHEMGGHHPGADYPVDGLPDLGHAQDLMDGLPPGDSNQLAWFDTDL

T2: B-cat-Halo (beta-catenin HaloTag NanoBRET construct expressed in HEK293 cells) (UniProt P35222 1-781)
T2 sequence (looked up): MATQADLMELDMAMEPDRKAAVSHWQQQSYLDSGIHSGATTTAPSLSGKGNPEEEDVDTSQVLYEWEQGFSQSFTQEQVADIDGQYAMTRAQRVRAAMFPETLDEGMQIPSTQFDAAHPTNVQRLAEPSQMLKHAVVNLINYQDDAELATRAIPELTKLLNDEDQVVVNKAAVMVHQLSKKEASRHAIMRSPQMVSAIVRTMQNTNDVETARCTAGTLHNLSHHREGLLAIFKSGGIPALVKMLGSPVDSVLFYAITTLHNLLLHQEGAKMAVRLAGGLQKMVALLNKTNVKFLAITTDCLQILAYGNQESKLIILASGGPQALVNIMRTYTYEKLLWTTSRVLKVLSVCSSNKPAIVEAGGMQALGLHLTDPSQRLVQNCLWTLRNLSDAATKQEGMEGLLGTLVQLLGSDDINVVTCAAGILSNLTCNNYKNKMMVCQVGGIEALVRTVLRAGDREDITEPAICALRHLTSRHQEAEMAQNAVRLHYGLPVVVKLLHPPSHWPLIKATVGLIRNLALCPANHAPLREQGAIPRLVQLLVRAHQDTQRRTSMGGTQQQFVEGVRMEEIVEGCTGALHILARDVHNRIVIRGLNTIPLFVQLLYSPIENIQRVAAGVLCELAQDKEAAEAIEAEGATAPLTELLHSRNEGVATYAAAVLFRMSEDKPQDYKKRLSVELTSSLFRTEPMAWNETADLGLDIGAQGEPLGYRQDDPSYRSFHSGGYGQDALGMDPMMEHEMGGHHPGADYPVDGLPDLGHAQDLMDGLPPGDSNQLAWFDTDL

T3: B-cat-Halo (beta-catenin HaloTag NanoBRET construct expressed in HEK293 cells) (UniProt P35222 1-781, HaloTag NanoBRET 618 Ligand bound to the HaloTag)
T3 sequence (looked up): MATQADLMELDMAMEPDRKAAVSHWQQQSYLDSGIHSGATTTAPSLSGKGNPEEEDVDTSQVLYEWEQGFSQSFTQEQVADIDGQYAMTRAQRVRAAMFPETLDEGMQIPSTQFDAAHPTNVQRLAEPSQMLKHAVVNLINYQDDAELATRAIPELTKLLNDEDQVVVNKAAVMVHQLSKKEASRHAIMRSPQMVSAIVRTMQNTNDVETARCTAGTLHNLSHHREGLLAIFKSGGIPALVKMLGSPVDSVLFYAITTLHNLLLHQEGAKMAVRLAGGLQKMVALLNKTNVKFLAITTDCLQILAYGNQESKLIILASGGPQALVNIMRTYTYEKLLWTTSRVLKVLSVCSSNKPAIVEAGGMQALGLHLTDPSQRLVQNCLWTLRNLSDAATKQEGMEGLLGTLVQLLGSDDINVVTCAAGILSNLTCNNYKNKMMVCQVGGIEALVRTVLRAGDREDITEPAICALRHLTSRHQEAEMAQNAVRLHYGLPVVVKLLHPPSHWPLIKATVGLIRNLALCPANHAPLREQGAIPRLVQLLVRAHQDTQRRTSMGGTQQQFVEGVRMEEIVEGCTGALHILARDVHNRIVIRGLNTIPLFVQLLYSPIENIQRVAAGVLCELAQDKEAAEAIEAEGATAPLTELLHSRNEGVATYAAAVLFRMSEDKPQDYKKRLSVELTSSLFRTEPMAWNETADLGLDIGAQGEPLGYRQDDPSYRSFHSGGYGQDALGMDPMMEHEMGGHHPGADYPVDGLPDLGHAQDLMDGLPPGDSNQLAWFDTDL


biological target: T1, Bcat-Halo; experiment: cell-based or functional assay

NanoBRET Abs IC50 [µM]	Binder
41.2	Ac-[αAllylPro]D[tBuAla][B5(4)]DYAA[Phe(3-COOH)][hSer][PyrS2″][3Thi][Bta]Q-NH2 (staple 1-4, 4-11; also: later eluting HPLC isomer composition) [I-2125]
40.8	Ac-[αAllylPro]D[tBuAla][B5(4)]DWAA[Phe(3-COOH)]N[PyrS2″][3Thi][Bta]Q-NH2 (staple 1-4, 4-11) [I-2127]
26.9	Ac-[αAllylPro]D[tBuAla][B5(4)]DHAA[Phe(3-COOH)]L[PyrS2″][3Thi][Bta]Q-NH2 (staple 1-4, 4-11; also: later eluting HPLC isomer composition) [I-2123]
38.9	Ac-[αAllylPro]D[tBuAla][B5(4)]DYAA[Phe(3-COOH)][hSer][PyrS2″][3Thi][Bta]Q-NH2 (staple 1-4, 4-11; also: earlier eluting HPLC isomer composition) [I-2124]
29.5	Ac-[αAllylPro]D[tBuAla][B5(4)]DYAA[Phe(3-COOH)]L[PyrS2″][3Thi][Bta]Q-NH2 (staple 1-4, 4-11) [I-2126]
44	Ac-[αAllylPro]D[tBuAla][B5(4)]DWAA[Phe(3-COOH)]L[PyrS2″][3Thi][Bta]Q-NH2 (staple 1-4, 4-11) [I-2129]
27	Ac-[αAllylPro]D[tBuAla][B5(4)]DWAA[Phe(3-COOH)][hSer][PyrS2″][3Thi][Bta]Q-NH2 (staple 1-4, 4-11) [I-2128]

biological target: T2, B-cat-Halo (beta-catenin HaloTag …); experiment: cell-based or functional assay

Binder	NanoBRET Abs IC50 [µM]
Ac-[αAllylPro]DQ[B5(15)]DEAAF[hSer][S8]F[Bta]Q-NH2 (staple 1-4, 4-11; not fully specified; printed as Ac-PL3-Asp-Gln-B5-Asp-Glu-Ala-Ala-Phe-Hse-S8-Phe-BztA-Gln-NH2) [I-1543]	> 20
Ac-[αAllylPro]D[hLeu][B5(15)]DEAAFL[S8]F[Bta]Q-NH2 (staple 1-4, 4-11) [I-1536]	18.4
Ac-[αAllylPro]D[hLeu][B5(15)]DEAAF[hSer][S8]F[Bta]Q-NH2 (staple 1-4, 4-11; not fully specified; printed as Ac-PL3-Asp-Hleu-B5-Asp-Glu-Ala-Ala-Phe-Hse-S8-Phe-BztA-Gln-NH2) [I-1538]	11.8
Ac-[αAllylPro]D[hLeu][B5(15)]DEAAF[hSer][S8]F[Bta]Q-NH2 (staple 1-4, 4-11; not fully specified; printed as Ac-PL3-Asp-Hleu-B5-Asp-Glu-Ala-Ala-Phe-Hse-S8-Phe-BztA-Gln-NH2) [I-1537]	13.9
Ac-[αAllylPro]DQ[B5(15)]DEAAF[hSer][S8]F[Bta]Q-NH2 (staple 1-4, 4-11; not fully specified; printed as Ac-PL3-Asp-Gln-B5-Asp-Glu-Ala-Ala-Phe-Hse-S8-Phe-BztA-Gln-NH2) [I-1542]	49.1

Now from value to binder:

NanoBRET Abs IC50 [µM]	Binder
> 20	Ac-[αAllylPro]D[hSer][B5(15)]DEAAF[hSer][S8]F[Bta]Q-NH2 (staple 1-4, 4-11; not fully specified) [I-1548]
11.6	Ac-[αAllylPro]DF[B5(15)]DEAAFQ[S8]F[Bta]Q-NH2 (staple 1-4, 4-11) [I-1549]

biological target: T3, B-cat-Halo (beta-catenin HaloTag …); experiment: cell-based or functional assay

NanoBRET Abs IC50 [µM]	Binder
24.2	Ac-[αAllylPro]DN[B5(5)]DDAAFL[PyrS2″][3Thi][Bta][hSer]-NH2 (staple 1-4, 4-11) [I-1518: Ac-PL3-Asp-Asn-B5-Asp-Asp-Ala-Ala-Phe-Leu-PyrS2-3Thi-BztA-Hse-NH2]
17.4	Ac-[αAllylPro]D[Cha][B5(5)]DDAAFL[PyrS2(4)][3Thi][Bta][hSer]-NH2 (staple 1-4, 4-11; not fully specified; printed as I-1520: Ac-PL3-Asp-Cha-B5-Asp-Asp-Ala-Ala-Phe-Leu-PyrS2-3Thi-BztA-Hse-NH2; reading uncertain) [I-1520: Ac-PL3-Asp-Cha-B5-Asp-Asp-Ala-Ala-Phe-Leu-PyrS2-3Thi-BztA-Hse-NH2]
